In patent publication US9345682B2, “Inhibition of STAT3 signal transduction for human cancer therapy” (University of South Florida, priority 1999, dated 2016):
Non-standard residues stand in square brackets, D forms with d. No end group written: not given here. pY = N[C@@H](Cc1ccc(OP(=O)(O)O)cc1)C(=O)O

B1: Fas ligand: Fas ligand (Alexis) (protein, UniProt P48023 130-281, looked up)
Tumor necrosis factor ligand …: QIGHPSPPPEKKELRKVAHLTGKSNSRSMPLEWEDTYGIVLLSGVKYKKGGLVINETGLYFVYSKVYFRGQSCNNLPLSHKVYMRNSKYPQDLVMMEGKMMSYCTTGQMWARSSYLGAVFNLTSADHLYVNVSELSLVNFEESQTFFGLYKL
B2: rIL-12: recombinant IL-12 (Genetics Institute) (protein, UniProt P29459 23-219; P29460 23-328, looked up)
Interleukin-12 subunit alpha: RNLPVATPDPGMFPCLHHSQNLLRAVSNMLQKARQTLEFYPCTSEEIDHEDITKDKTSTVEACLPLELTKNESCLNSRETSFITNGSCLASRKTSFMMALCLSSIYEDLKMYQVEFKTMNAKLLMDPKRQIFLDQNMLAVIDELMQALNFNSETVPQKSSLEEPDFYKTKIKLCILLHAFRIRAVTIDRVMSYLNAS
Interleukin-12 subunit beta: IWELKKDVYVVELDWYPDAPGEMVVLTCDTPEEDGITWTLDQSSEVLGSGKTLTIQVKEFGDAGQYTCHKGGEVLSHSLLLLHKKEDGIWSTDILKDQKEPKNKTFLRCEAKNYSGRFTCWWLTTISTDLTFSVKSSRGSSDPQGVTCGAATLSAERVRGDNKEYEYSVECQEDSACPAAEESLPIEVMVDAVHKLKYENYTSSFFIRDIIKPDPPKNLQLKPLKNSRQVEVSWEYPDTWSTPHSYFSLTFCVQVQGKSKREKKDRVFTDKTSATVICRKNASISVRAQDRYYSSSWSEWASVPCS

How the values were obtained:
STAT3 = biological target: T1, STAT3 (Homo sapiens, UniProt P40763); experiment: Disruption of STAT3 DNA-binding activity in vitro by synthetic peptides; conditions: ne = no effect
T1 construct: made in house; host or cells: Sf9 insect cells co-infected with baculoviruses for STAT3 and Src or Fes (cell extracts)
T1 sequence (P40763 whole entry, species assumed): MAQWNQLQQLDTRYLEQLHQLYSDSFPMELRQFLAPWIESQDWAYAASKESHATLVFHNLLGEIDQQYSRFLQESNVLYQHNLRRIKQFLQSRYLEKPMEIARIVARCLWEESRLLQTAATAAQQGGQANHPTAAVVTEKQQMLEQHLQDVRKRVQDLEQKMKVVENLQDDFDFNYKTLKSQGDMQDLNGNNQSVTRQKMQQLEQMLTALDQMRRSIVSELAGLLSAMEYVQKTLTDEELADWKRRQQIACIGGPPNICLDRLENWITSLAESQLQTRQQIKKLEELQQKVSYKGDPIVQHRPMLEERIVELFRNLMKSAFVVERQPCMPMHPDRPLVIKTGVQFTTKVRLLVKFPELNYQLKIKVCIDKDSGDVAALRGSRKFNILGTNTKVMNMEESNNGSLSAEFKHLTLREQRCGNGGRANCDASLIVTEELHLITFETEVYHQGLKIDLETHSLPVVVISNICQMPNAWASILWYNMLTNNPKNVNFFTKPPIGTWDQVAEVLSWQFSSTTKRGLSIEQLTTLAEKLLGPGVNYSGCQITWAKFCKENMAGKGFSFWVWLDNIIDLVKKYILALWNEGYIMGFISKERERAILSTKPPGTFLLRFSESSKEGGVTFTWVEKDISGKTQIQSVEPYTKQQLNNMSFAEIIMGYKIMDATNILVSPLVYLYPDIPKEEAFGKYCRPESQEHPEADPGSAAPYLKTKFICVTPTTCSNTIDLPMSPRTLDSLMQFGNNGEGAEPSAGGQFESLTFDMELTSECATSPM
Excerpt: A novel non-radioactive, 96-well plate based assay is used for measuring STAT3 DNA-binding activity (FIG. 30). In this high throughput assay, a biotinylated hSIE probe is used in place of the ^32P-labeled hSIE probe used for EMSA to detect binding of STAT3 dimers. The hSIE oligonucleotide is a high-affinity mutant of the original sis-inducible element in the C-fos gene promoter that binds STAT3. The biotinylated hSIE probe is immobilized onto a streptavidin-coated 96-well plate, permitting a large number of compounds and concentrations to be tested in a single experiment. The source of activated STAT3 is extracts derived from Sf9 insect cells co-infected with baculoviruses encoding STAT3 and either the Src or Fes tyrosine kinases. Using this baculovirus expression system, high levels of activated STAT3 dimers are produced as a result of phosphorylation by the co-expressed tyrosine kinases. Activated STAT3 is added to the 96-well plate in the presence or absence of the compounds to be screened. After incubation for 30 min with compounds, STAT3 dimers that bind to the biotinylated hSIE probe are detected with an anti-Stat3 primary antibody (Santa Cruz Biotechnology) followed by a horseradish-peroxidase conjugated secondary antibody. Immune complexes are detected by colorimetric conversion of the substrate, 3,3′,5,5′-tetramethylbenzidine (TMB) peroxidase, using a conventional ELISA plate reader. Epitope tagged versions of STAT3 expressed from baculoviruses have also been generated that are detected using the cognate primary antibodies. We find these anti-tag antibodies to be more sensitive and/or specific.
To facilitate these high throughput, 96-well plate assays, the screening is automated using an available Beckman 2000 Biotek robotics workstation coupled to an ELISA plate reader. The computer-programmed robotics workstation has multi-volume, multi-component mixing capability that greatly accelerates all of the high throughput assays. Inhibition of STAT3 DNA-binding activity in this assay is readily detected as a loss of signal relative to the controls without added compound. As a positive control and to establish the DNA-binding specificity, activated STAT3 is added in the presence of either excess free hSIE oligonucleotide for competition or a non-binding oligonucleotide, FIRE. […] As a negative control, extracts from IFNa-stimulated cells are used as a source of STAT1, which also binds the hSIE. Initial screens are performed at high concentrations of compounds (e.g., 100 uM), and active compounds are further tested in concentration-response studies.
A total of 19 synthetic peptides are tested based on the PY*LKTK sequence (Y*=phosphotyrosine) and their IC50 is determined in terms of disruption of STAT3 DNA-binding activity in vitro (Table 3).

Full length STAT3 = biological target: T2, Full length STAT3 (Homo sapiens, UniProt P40763); experiment: Phage display panning, 12-mer peptide library, on full-length GST-Stat3; type: binding
T2 construct: Full-length GST-Stat3, immobilized to glutathione-Sepharose beads, is used to screen a display peptide library; made in house; host or cells: E. coli
T2 sequence (P40763 whole entry, species assumed): as above
Excerpt: Phage display peptide libraries are used because of two powerful features. First, phage libraries generate an enormous diversity of peptides that can be subjected to affinity selection by panning. […] These combinatorial libraries are based on random short peptide sequences fused to a coat protein of bacteriophage, herein pIII of the filamentous coliphage MI3. Panning of the peptide library using an immobilized target, herein STAT3 fusion proteins bound onto beads, is used to select for peptide sequences that bind to STAT3. […] Peptide sequences that occur at elevated frequencies are good candidates for ST4T3-specific binding peptides. […] These cyclic peptides have the advantage of reducing entropic freedom, thereby potentially increasing binding specificity and affinity relative to linear peptides. Another variation on this approach is to combine “affinity maturation” with the phage display peptide library [Scott & Smith, 1990, Science, 249:386-390].
The GST-Stat3 fusion protein is purified on glutathione-Sepharose beads according to standard methods. The first library screened is obtained from a commercial source (New England Biolabs) and consists of random 12 amino acid sequences with a complexity of 1.9×10^9 independent transformants, each theoretically represented approximately 70 times in 1.4×10^11 phage particles. […] This is due to the inability of peptidases to cleave adjacent to proline residues in the peptide leader sequence, which is required for secretion. The titer of the original phage library after one round of amplification is 1.4×10^13 pfu/ml (plaque forming units per ml).
For panning phage with the STAT3 fusion protein, 50 ul of glutathione-Sepharose beads bound to purified GST-Stat3 fusion protein are washed with phosphate buffered saline (PBS). The beads are then incubated with 10 ul of phage suspension (1.4×10^11 virions) in 200 ul final volume of PBS for 30 min at room temperature with occasional mixing. The beads are gently pelleted in a microcentrifuge, and washed 10 times with 1 ml of PBS to remove unbound phage. Background of non-specifically bound phage is reduced by a variety of methods, including pre-blocking the beads with bovine serum albumin, pre-clearing the phage library with GST-glutathione-Sepharose beads, and washing the beads with increasing salt concentrations. Bound phage virions are eluted from the beads by incubation with a molar excess of glutathione for 30 min at room temperature. A small aliquot of the phage eluate is titered and the rest is amplified on the E. coli ER2537 host strain. Following amplification, the phage are purified by polyethylene glycol (PEG) precipitation and then the titer is determined again. Using 1-2×10^11 phage particles from the amplified eluate as input, the above binding and amplification steps are repeated a total of 3 to 4 times. After the final titering step, 40-100 isolated plaques are amplified for DNA sequencing to identify a consensus binding sequence. Sequence analysis is performed by automated sequencing on a Pharmacia ALF sequencer.
Full-length GST-Stat3, immobilized to glutathione-Sepharose beads, is used to screen a display peptide library containing 1.9×10^9 random 12-mer peptides positioned at the N-terminus of a minor coat protein (pIII) of the M13 filamentous bacteriophage. Based on their frequencies shown in Table 1, the five most promising peptides from a 12-mer peptide library that bind to full-length STAT3 are listed.

[1] = tested on: Bcl-xL overexpressing U266 cells; experiment: Drug-induced apoptosis in U266 cells overexpressing Bcl-xL; type: cell-based, human; conditions: stable U266 clones overexpressing Bcl-xL; 24 h for melphalan and mitoxantrone
Protocol: FIG. 23 Enforced Overexpression of Bcl-x Confers Resistance to Chemotherapy. Panel A: U266 cells are transfected with a CMV expression vector encoding Bcl-x, tagged with the FLAG epitope. Several stable, independent clones overexpressing Bcl-xL, as well as empty vector controls (Neo), are isolated and analyzed by Western blot with antibodies to Bcl-xL, or the FLAG epitope tag. B: The indicated cell lines are incubated with either melphalan (LPAM) or mitoxantrone for 24 h, and apoptosis is monitored by AnnexinV-FITC staining and flow cytometry. Overexpression of Bcl-xL protects the cells from chemotherapy-induced apoptosis.
These Bcl-xL overexpressing cells are resistant to apoptosis induced by AG490, as predicted since the ectopic Bcl-xL is expressed from a CMV promoter and is thus independent of JAK-STAT signaling. […] These findings support one embodiment of the present invention, that Bcl-x confers resistance to chemotherapy-induced apoptosis, and therefore that inhibition of STAT3 signaling promotes chemotherapy-induced apoptosis.

U266 cells = experiment: Fas-mediated apoptosis (Annexin V, flow cytometry) in U266 cells; type: cell-based, human; conditions: 500 ng/ml CH-11 or 100 ng/ml Fas ligand
Protocol: For surface detection of the Fas receptor, 10^6 cells are suspended in […] PBS with 2.5 mg/ml mouse IgM (Sigma) and […] UB2 antibody (MBL) or IgG1, isotype control serum (Dako). Following 30 min incubation at room temperature, cells are washed with PBS, and incubated in the dark for 30 min with goat anti-mouse Ig-FITC. Fluorescence is measured on a FACScan flow cytometer and analyzed using CellQuest software (Becton Dickinson). For cell cycle analysis, 10^6 cells are fixed in ice-cold ethanol for a minimum of 2 h, washed with PBS, and stained with 5 mg/ml propidium iodide (PI) and […] at 37° C. for 30 min prior to analysis by flow cytometry. […] Apoptosis is measured by staining with Annexin V-FITC (Clontech) and flow cytometry analysis. Fas-specific death is calculated as (% Annexin V positive cells in the CH-11 treated population)−(% Annexin V positive cells in the IgM control population). Programmed cell death in cells transfected with the bicistronic green fluorescent protein vectors (pIRES-EGFP or pIRES-Stat3b) is analyzed after staining with Annexin V-PE (Pharmingen) by two color flow cytometry analysis. Apoptotic morphology of DAPI-stained nuclei and green/red fluorescence is confirmed by fluorescence microscopy.

MPC11 tumors = experiment: MPC11 myeloma tumor growth in vivo; design: species or system BALB/c mice; conditions: MPC11 tumor-bearing mice, rIL-12 alone, 200 ng every second day
Protocol: Mice and tumor formation in vivo. Six- to eight-week old female BALB/c mice are obtained from the National Cancer Institute (Frederick, Md.). Cohorts of 3-5 mice per group are used for these experiments. Mice are shaved on the right flank and injected subcutaneously (s.c.) with 5×10^5 of either MOPC or MPC11 cells in […] of PBS to induce tumors.
In vivo treatment with AG-490 and IL-12. When tumors reach about 5 […] in diameter, AG-490 treatment of tumors is initiated and continued daily for 7-10 days. For MOPC tumors, injections of 0.85 mg/day of AG-490 are given intratumorally, supplemented with 0.5 mg/day of AG-490 i.p. For MPC11 tumors, the intratumoral treatment is halved while the i.p. dose remains the same. Control mice receive 50% DMSO vehicle alone in the same volume as the AG-490 treatment group. Recombinant IL-12 is given s.c. at either 100 ng or 200 ng every other day. Tumor growth is monitored daily by measuring two perpendicular tumor diameters with a caliper, and tumor volume was calculated according to the formula V=0.52*a*b(a+b)/2 (a=smallest superficial diameter; b=largest superficial diameter).

Row | Molecule | IC50, disruption of STAT3 DNA-binding activity (STAT3) | Frequency (out of 100 clones) (Full length STAT3) [%] | other results
1 | PYLKTK [synthetic peptide, unphosphorylated] | ne | – | –
2 | FSYPLTRAPLNM (listed as Homo sapiens) | – | 8 | –
3 | Y*LK ([pY]-Leu-Lys; listed as Homo sapiens) [synthetic peptide, Y* = phosphotyrosine] | ne | – | –
4 | N[C@@H](Cc1ccc(N(CCCl)CCCl)cc1)C(=O)O [melphalan] | – | – | apoptosis induced in Bcl-xL overexpressing cells [1]: resistant
5 | O=C1c2c(O)ccc(O)c2C(=O)c2c(NCCNCCO)ccc(NCCNCCO)c21 [mitoxantrone] | – | – | apoptosis induced in Bcl-xL overexpressing cells [1]: resistant
6 | PFLKTK | ne | – | –
7 | SHPWNAQRELSV (listed as Homo sapiens) | – | 9 | –
8 | PY*AKTK (P[pY]AKTK; listed as Homo sapiens) [synthetic peptide, Y* = phosphotyrosine] | ne | – | –
9 | QDVHLTQQSRYT (listed as Homo sapiens) | – | 13 | –
10 | HY(S/P)PILVYQPSW | – | 25 | –
11 | YPAPQPLVTKTS (listed as Homo sapiens) | – | 8 | –
12 | B1 | – | – | Fas-mediated cell death (U266 cells): completely resistant
13 | B2 | – | – | tumor growth (MPC11 tumors): only slightly inhibits
